Experimental data reported in PMC2805716, “Critical Structural and Functional Roles for the N-Terminal Insertion Sequence in Surfactant Protein B Analogs” (PLoS ONE, 2010).

B1: Super Mini-B (peptide)
chain: FPIPLPYCWLCRALIKRIQAMIPKGGRMLPQLVCRLVLRCS
notes: numbers count on: the mature protein (79 residues); surfactant protein B (SP-B), human, residues 63-78 (C-terminal helix region); the split into the two SP-B stretches follows the stated ranges (1-7 plus 8-25, and 63-78); Oxidised form with intramolecular disulfides Cys-8 to Cys-40 and Cys-11 to Cys-34; also called S-MB; SMB; source: synthetic peptide (Fmoc solid phase, HPLC-purified, …)

How the values were obtained:
[1] = system: surfactant-deficient animal models; details: ref [34]–[37]; cited from earlier work
Source text: (§1) Previous structural and functional studies with synthetic peptides representing the N- and C-terminal regions of SP-B further support the hypothesis that these charged amphipathic helices participate in surfactant activities. […] The cationic N-terminus of SP-B may here interact with anionic lipids to remove the driving force for lipid squeeze-out from the surface film, [32]. In additional studies, SP-B(1–25 ...

[2] = lipid monolayers containing palmitic acid; ref [31], [32]; cited from earlier work
Source text: as §1

[3] = ESR, ref [30], cited from earlier work
Source text: Although the “10 nsec” MD simulation of dimer S-MB provides a reasonable framework to account for our SDS-PAGE and SPR results (Figs. 8 and 10), it is worthwhile to consider other structural models by which the N-terminal insertion sequence may promote the self-association of S-MB. One possible alternative is that oligomeric S-MB may be due to the N-terminal sequence (residues 1-7) forming β-sheet. The N-terminal SP-B(1–9) (Fig. 2) was earlier proposed to act as a ‘biochemical Velcro®,’ facilitating in vivo either the aggregation of SP-B or the interactions of SP-B with SP-C [50]. In support ...

[4] = target: the molecule itself; test: SDS-PAGE; 4 µg peptide in 8 µl buffer (50 mM MOPS, 50 mM Tris, pH 7.7, 0.1% SDS, 1 mM EDTA), neither heated nor reduced; 16% acrylamide gel; Coomassie blue and silver staining; molecular weight markers 2.5-16.9 kDa
[5] = target: T1, Cys-MB (Mini-B with a cysteine added to its N-terminus, chip-linked) (human); test: SPR; Biacore 3000; Cys-MB or Cys-S-MB linked to a thiol chip; MB or S-MB at 1 µg peptide/ml in HBS-EP (10 mM Hepes, pH 7.4, 150 mM NaCl, 3 mM EDTA, 0.005% surfactant P20) flowed over at 50 µl/min, 37°C; constants from curve fitting at the one concentration; details: both partners purified
T1 construct: cysteine added to the N-terminus to link the peptide to the thiol Biacore chip; surfactant protein B (SP-B), human, residues 8-25; numbers count on: the mature protein (79 residues); surfactant protein B (SP-B), human, residues 63-78; Immobilised on the SPR chip; also called chipped MB; N-terminal Cys-MB
T1 chain: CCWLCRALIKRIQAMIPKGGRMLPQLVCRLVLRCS

[6] = target: T2, Cys-S-MB (Super Mini-B with a cysteine added to its N-terminus, chip-linked) (human); test: as above; details: both partners purified
T2 construct: cysteine added to the N-terminus to link the peptide to the thiol Biacore chip; surfactant protein B (SP-B), human, residues 1-25; numbers count on: the mature protein (79 residues); surfactant protein B (SP-B), human, residues 63-78; Immobilised on the SPR chip; also called chipped S-MB; N-terminal Cys-S-MB
T2 chain: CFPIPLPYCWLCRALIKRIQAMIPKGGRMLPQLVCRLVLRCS

Molecule	oxygenation and lung compliance [1]	collapse pressure of lipid monolayers [2]	aggregation ([3]; PBS, spin-labeled at Phe-1)	aggregation upon addition of SDS micelles ([3]; SDS micelles added)	stoichiometry N [4]	Kd [5] [nM]	koff [5] [s⁻¹]	kon [5] [M⁻¹ s⁻¹]	Kd [6] [nM]	koff [6] [s⁻¹]	kon [6] [M⁻¹ s⁻¹]
SP-B(1–25): synthetic peptide based on the N-terminal domain of SP-B, residues 1–25 (FPIPLPYCWLCRALIKRIQAMIPKG; Pulmonary surfactant-associated protein B; UniProt P07988 201-225, looked up, fragment)	improved oxygenation and lung compliance	increase the collapse pressure	primarily aggregated in PBS	addition of SDS micelles rapidly dissociated these SP-B(1–25) aggregates							
B1					2	52.1	0.00736	141000	20.1	0.000901	44700
